Measurements reported in PMC3008546 (Structure (London, England : 1993), 2010).

B1: XRCC4 1-140 (domain or fragment, human, UniProt Q13426 1-140, looked up)
chain: MERKISRIHLVSEPSITHFLQVSWEKTLESGFVITLTDGHSAWTGTVSESEISQEADDMAMEKGKYVGELRKALLSGAGPADVYTFNFSKESCYFFFEKNLKDVSFRLGSFNLEKVENPAEVIRELICYCLDTIAENQAK
B2: XRCC4 1-161 (domain or fragment, human, UniProt Q13426 1-161, looked up)
chain: MERKISRIHLVSEPSITHFLQVSWEKTLESGFVITLTDGHSAWTGTVSESEISQEADDMAMEKGKYVGELRKALLSGAGPADVYTFNFSKESCYFFFEKNLKDVSFRLGSFNLEKVENPAEVIRELICYCLDTIAENQAKNEHLQKENERLLRDWNDVQGR
B3: full-length XRCC4 (natural protein, human, UniProt Q13426 1-336, looked up)
chain: MERKISRIHLVSEPSITHFLQVSWEKTLESGFVITLTDGHSAWTGTVSESEISQEADDMAMEKGKYVGELRKALLSGAGPADVYTFNFSKESCYFFFEKNLKDVSFRLGSFNLEKVENPAEVIRELICYCLDTIAENQAKNEHLQKENERLLRDWNDVQGRFEKCVSAKEALETDLYKRFILVLNEKKTKIRSLHNKLLNAAQEREKDIKQEGETAICSEMTADRDPVYDESTDEESENQTDLSGLASAAVSKDDSIISSLDVTDIAPSRKRRQRMQRNLGTEPKMAPQENQLQEKENSRPDSSLPETSKKEHISAENMSLETLRNSSPEDLFDEI

Columns and labels:
SAXS = target: the molecule itself; test: SAXS
SEC-MALS = target: the molecule itself; test: SEC-MALS

| Protein | stoichiometry N (SAXS) | stoichiometry N (SEC-MALS) |
| --- | --- | --- |
| B1 | 2 |  |
| B2 | 2 |  |
| B3 |  | 4 |
